Starred links: 1 amine or outer side, 2 acyl side, 3 side chain; linkers in the order of their positions; H or OH if unused. Positions of bridges follow the written chain, without caps; N, C: chain ends. Non-standard residues stand in square brackets, D forms with d. No end group written: not given here. *: point of attachment. HA‑tag = HA-tag attached to the G end of the C-terminal linker, CC(C)[C@H](NC(=O)[C@H](CC(=O)O)NC(=O)[C@H](Cc1ccc(O)cc1)NC(=O)[C@@H]1CCCN1C(=O)[C@H](Cc1ccc(O)cc1)N*)C(=O)N1CCC[C@H]1C(=O)N[C@@H](CC(=O)O)C(=O)N[C@@H](Cc1ccc(O)cc1)C(=O)N[C@@H](C)C(=O)O; KCOpipzaa = N6-(4-(carboxymethyl)piperazine-1-carbonyl)-L-lysine, O=C(NCCCC[C@H](N[*:1])C(=O)[*:2])N1CCN(CC(=O)[*:3])CC1; Phe(3-guanidino) = 3-[(aminoiminomethyl)amino]-L-phenylalanine, N=C(N)Nc1cccc(C[C@H](N[*:1])C(=O)[*:2])c1; Phe(4-guanidino) = N=C(N)Nc1ccc(C[C@H](N)C(=O)O)cc1; Trp(6-aza) = N[C@@H](Cc1c[nH]c2cnccc12)C(=O)O; Trp(7-aza) = N[C@@H](Cc1c[nH]c2ncccc12)C(=O)O; 1Nal = N[C@@H](Cc1cccc2ccccc12)C(=O)O; Gly(NCH2CH2Ph) = O=C(O)CNCCc1ccccc1; 3Pal = N[C@@H](Cc1cccnc1)C(=O)O; 4Pal = N[C@@H](Cc1ccncc1)C(=O)O
Tests used:
[1] = molecular target: T1, recombinant human TGF-β1 (Homo sapiens, UniProt P01137); assay: ELISA of HA-tagged peptides with TGF-β1 beads; type: binding; settings: for Activity of binding to TGF-β: relative value with binding of peptide TGFb1_061 (SEQ ID NO: 62) to TGF-β1 set to 100%, HA-tagged peptides, TGF-β1 beads ELISA
T1 construct: purchased R&D systems
Excerpt: In this Example, ELISA was used to evaluate the binding between TGF-β1 and each of various peptides consisting of the amino acid sequences set forth in SEQ ID NOs: 34-69 synthesized in Examples 6 and 7. An HA-tag was attached to the G end of the C-terminal linker of the peptide consisting of the amino acid sequence set forth in SEQ ID NOs: 34-69. As used herein, the “HA-tag” means the amino acid sequence of PEG10[…] (SEQ ID NO: 70).
The binding activity of each peptide to TGF-β1 was examined by ELISA using the peptide consisting of the amino acid sequence set forth in SEQ ID NOs: 34-69 having an HA-tag attached and TGF-β1 beads.
Recombinant human TGF-β1 (R&D Systems) was immobilized on Dynabead M-270 Carboxylic Acid (Thermo fisher scientific) to prepare TGF-β1 beads. The immobilization reaction was performed using the Amine Coupling kit (DOJINDO LABORATORIES).
TGF-β1 beads and each peptide having the HA-tag sequence attached at the C-terminus were reacted in PBS (PBS-T) containing 0.1% Tween 20 (NACALAI TESQUE, INC.) for 1 hour and then washed by PBS-T. To detect the peptide bound to the TGF-β1 beads, an anti-HA-tag mAb-HRP-DirecT (MBL) and the TGF-β1 beads were reacted in PBS-T containing 1% BSA for 30 min. After washing with PBST, a SureBlue TMB Microwell Peroxidase Substrate (Kirkegaard & Perry Laboratories) was added for coloration for 10 min. TMB stop solution (Kirkegaard & Perry Laboratories) was then added to stop the coloration reaction. An EnSpire (Perkin Elmer) was used to measure absorbance.
Note that the binding activity was expressed as a relative value when the ability of binding the peptide TGFb1_061 (SEQ ID NO: 62) to TGF-β1 was set to 100%.

[2] = molecular target: T2, recombinant human TGF-β1 (R&D systems) (human, UniProt P01137 279-390); assay: SPR, TGF-β1 immobilised, single cycle kinetics
T2 construct: Bought protein; immobilised on a CM3 chip (SPR) or on Dynabeads (ELISA), added to cells in the SBE reporter assay; also called TGF-β1 beads
Protocol: Subsequently, 50 μL of 60 mM EDC solution (Global Life Science Technologies Japan Co., Ltd.) and 50 μL of 650 mM NHS solution (Global Life Science Technologies Japan Co., Ltd.) were mixed. Next, the reaction was carried out at a flow rate of 10 μL/min for 420 seconds. Then, 150 μL of 0.2 μM TGF-β solution diluted in 10 mM acetic acid solution (pH 5.0) was prepared and reacted at a flow rate of 10 μL/min for 420 seconds to immobilize TGF-β on the CM3 sensor chip. TGF-β was human-derived TGF-β1 or β2 (recombinant human TGF-β1, 2) and was obtained from R&D systems. After immobilization, capping was performed by reacting with 1.0 M ethanolamine aqueous solution (Global Life Science Technologies Japan Co., Ltd.) at a flow rate of […] for 420 seconds.
A liquid prepared by dissolving each peptide at 10 mM in DMSO solution was diluted with running buffer to prepare a peptide-dissolved solution at a final concentration of 10 μM. Subsequently, 50 nM, 25 nM, 12.5 nM, 5 nM, and 2.5 nM peptide solutions were prepared. Using the above samples, the kinetics of each peptide against TGF-β was obtained by SPR measurement.
The kinetics evaluation model was Single Cycle Kinetics, and curve fitting was performed using Biacore T200 Evaluation Software Version 3.0 (Global Life Science Technologies Japan Co., Ltd.). The binding of various peptides to TGF-β was evaluated by performing least-squares curve fitting on the obtained sensorgram to calculate the KD value.

[3] = molecular target: T2, recombinant human TGF-β1 (R&D systems); assay: cell-based or functional assay

T2 sequence (P01137 279-390 limits assumed): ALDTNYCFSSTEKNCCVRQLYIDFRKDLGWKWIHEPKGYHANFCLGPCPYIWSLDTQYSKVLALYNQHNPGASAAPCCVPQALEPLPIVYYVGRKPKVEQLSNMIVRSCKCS
T1 sequence (P01137 279-390 limits assumed): as above

48 ({CH2CO}-F[1Nal]VVNVEDD[Gly(NCH2CH2Ph)]V[1Nal]YHVCG; thioether N-16; also: HA-tag) [compound 48]
Activity of binding to TGF-β [1]: 80%

49 ({CH2CO}-F[1Nal]VVNVYDD[Gly(NCH2CH2Ph)]V[1Nal][4Pal]HVCG; thioether N-16; also: HA-tag) [compound 49]
Activity of binding to TGF-β [1]: 80%

50 ({CH2CO}-F[1Nal]VVNVYDD[Gly(NCH2CH2Ph)]V[1Nal]YHQCG; thioether N-16; also: HA-tag) [compound 50]
Activity of binding to TGF-β [1]: 81%

51 ({CH2CO}-F[1Nal]VKNVYDD[Gly(NCH2CH2Ph)]V[1Nal]YHVCG; thioether N-16; also: HA-tag) [compound 51]
Activity of binding to TGF-β [1]: 84%

52 ({CH2CO}-F[Trp(6-aza)]VVNVYDD[Gly(NCH2CH2Ph)]V[1Nal]YHVCG; thioether N-16; also: HA-tag) [compound 52]
Activity of binding to TGF-β [1]: 85%

53 ({CH2CO}-F[1Nal]VVNVYDDKV[1Nal]YHVCG; thioether N-16; also: HA-tag) [compound 53]
Activity of binding to TGF-β [1]: 86%

54 ({CH2CO}-F[1Nal]VVNV[Phe(4-guanidino)]DD[Gly(NCH2CH2Ph)]V[1Nal]YHVCG; thioether N-16; also: HA-tag) [compound 54]
Activity of binding to TGF-β [1]: 87%

55 ({CH2CO}-F[1Nal]VVNVYDD[Gly(NCH2CH2Ph)]V[1Nal]YHECG; thioether N-16; also: HA-tag) [compound 55]
Activity of binding to TGF-β [1]: 89%

56 ({CH2CO}-FWVVNVYDD[Gly(NCH2CH2Ph)]V[1Nal]YHVCG; thioether N-16; also: HA-tag) [compound 56]
Activity of binding to TGF-β [1]: 90%

57 ({CH2CO}-F[1Nal]VVNVQDD[Gly(NCH2CH2Ph)]V[1Nal]YHVCG; thioether N-16; also: HA-tag) [compound 57]
Activity of binding to TGF-β [1]: 90%

58 ({CH2CO}-F[1Nal]VVNVYED[Gly(NCH2CH2Ph)]V[1Nal]YHVCG; thioether N-16; also: HA-tag) [compound 58]
Activity of binding to TGF-β [1]: 93%

59 ({CH2CO}-F[1Nal]VVNVYDD[Gly(NCH2CH2Ph)]V[1Nal][3Pal]HVCG; thioether N-16; also: HA-tag) [compound 59]
Activity of binding to TGF-β [1]: 95%

60 ({CH2CO}-F[1Nal]VVNVYDQ[Gly(NCH2CH2Ph)]V[1Nal]YHVCG; thioether N-16; also: HA-tag) [compound 60]
Activity of binding to TGF-β [1]: 95%

61 ({CH2CO}-F[1Nal]VVNVYKD[Gly(NCH2CH2Ph)]V[1Nal]YHVCG; thioether N-16; also: HA-tag) [compound 61]
Activity of binding to TGF-β [1]: 98%

62 ({CH2CO}-F[1Nal]VVNVYDD[Gly(NCH2CH2Ph)]V[1Nal]YHVCG; thioether N-16; also: HA-tag) [compound 62]
Activity of binding to TGF-β [1]: 100%

63 ({CH2CO}-F[1Nal]VVNVKDD[Gly(NCH2CH2Ph)]V[1Nal]YHVCG; thioether N-16; also: HA-tag) [compound 63]
Activity of binding to TGF-β [1]: 102%

64 ({CH2CO}-F[1Nal]VVNVYDK[Gly(NCH2CH2Ph)]V[1Nal]YHVCG; thioether N-16; also: HA-tag) [compound 64]
Activity of binding to TGF-β [1]: 102%

65 ({CH2CO}-F[1Nal]VVNV[Phe(3-guanidino)]DD[Gly(NCH2CH2Ph)]V[1Nal]YHVCG; thioether N-16; also: HA-tag) [compound 65]
Activity of binding to TGF-β [1]: 104%

66 ({CH2CO}-F[Trp(7-aza)]VVNVYDD[Gly(NCH2CH2Ph)]V[1Nal]YHVCG; thioether N-16; also: HA-tag) [compound 66]
Activity of binding to TGF-β [1]: 106%

67 ({CH2CO}-F[1Nal]VVNVYDE[Gly(NCH2CH2Ph)]V[1Nal]YHVCG; thioether N-16; also: HA-tag) [compound 67]
Activity of binding to TGF-β [1]: 116%

68 ({CH2CO}-F[1Nal]VVNV[4Pal]DD[Gly(NCH2CH2Ph)]V[1Nal]YHVCG; thioether N-16; also: HA-tag) [compound 68]
Activity of binding to TGF-β [1]: 119%

69 ({CH2CO}-F[1Nal]VVNV[3Pal]DD[Gly(NCH2CH2Ph)]V[1Nal]YHVCG; thioether N-16; also: HA-tag) [compound 69]
Activity of binding to TGF-β [1]: 140%

TGFb1_061: cyclic peptide of Table 4 with G linker and HA-tag; ELISA reference set to 100% ({CH2CO}-F[1Nal]VVNVYDD[Gly(NCH2CH2Ph)]V[1Nal]YHVCG-{HA‑tag}; thioether N-16)
activity of binding to TGF-β, relative value ([1]; ELISA, relative to TGFb1_061 (SEQ ID NO: 62) set to 100%, HA-tag attached): 100%

B1: TGFb1_007 (peptide)
peptide: {CH2CO}-F[1Nal]VKNV[4Pal]DD[Gly(NCH2CH2Ph)]V[1Nal]YHVCG
modifications: thioether N-16; not fully specified (C-terminus)
notes: cyclic peptide; C-terminal G is a linker
Kd [2]: 2.7 nM | SBE reporter % inhibition, peptide 0.075 nM [3]: 0.1% | SBE reporter % inhibition, peptide 0.75 nM [3]: 37.5% | SBE reporter % inhibition, peptide 7.5 nM [3]: 83.5% | SBE reporter % inhibition, peptide 75.0 nM [3]: 96.7%

B2: TGFb1_008 (peptide)
peptide: {CH2CO}-F[Trp(7-aza)]VVNV[4Pal]DD[Gly(NCH2CH2Ph)]V[1Nal]YHVCG
modifications: thioether N-16; not fully specified (C-terminus)
notes: as for B1
Kd [2]: 4.64 nM | SBE reporter % inhibition, peptide 0.075 nM [3]: 3.8% | SBE reporter % inhibition, peptide 0.75 nM [3]: 56.8% | SBE reporter % inhibition, peptide 7.5 nM [3]: 94.6% | SBE reporter % inhibition, peptide 75.0 nM [3]: 98.4%

B3: TGFb1_005 (peptide)
peptide: {CH2CO}-F[Trp(7-aza)]VVNVYDD[Gly(NCH2CH2Ph)]V[1Nal]YHVCG
modifications: thioether N-16; not fully specified (C-terminus)
notes: as for B1
Kd [2]: 1.15 nM | SBE reporter % inhibition, peptide 0.075 nM [3]: 0.4% | SBE reporter % inhibition, peptide 0.75 nM [3]: 47% | SBE reporter % inhibition, peptide 7.5 nM [3]: 90.8% | SBE reporter % inhibition, peptide 75.0 nM [3]: 98.9%

B4: TGFb1_010 (peptide)
peptide: {CH2CO}-F[1Nal]V[KCOpipzaa]NV[4Pal]DD[Gly(NCH2CH2Ph)]V[1Nal]YHVCG
modifications: thioether N-16; not fully specified (C-terminus)
notes: as for B1
Kd [2]: 0.9 nM | SBE reporter % inhibition, peptide 0.075 nM [3]: 2% | SBE reporter % inhibition, peptide 0.75 nM [3]: 63.8% | SBE reporter % inhibition, peptide 7.5 nM [3]: 97.9% | SBE reporter % inhibition, peptide 75.0 nM [3]: 99.9%

B5: TGFb1_004 (peptide)
peptide: {CH2CO}-F[Trp(6-aza)]VVNVYDD[Gly(NCH2CH2Ph)]V[1Nal]YHVCG
modifications: thioether N-16
notes: as for B1
Kd [2]: 1.49 nM | SBE reporter % inhibition, peptide 0.075 nM [3]: 0% | SBE reporter % inhibition, peptide 0.75 nM [3]: 0.9% | SBE reporter % inhibition, peptide 7.5 nM [3]: 70.1% | SBE reporter % inhibition, peptide 75.0 nM [3]: 94.9%

{CH2CO}-F[1Nal]VVNVYDD[Gly(NCH2CH2Ph)]V[1Nal]YHVC (thioether N-16, cyclic peptide) [TGFb1_002]
Kd [2]: 0.46 nM

B6: TGFb1_001 (peptide)
peptide: {CH2CO}-F[1Nal]VVNVYDD[Gly(NCH2CH2Ph)]V[1Nal]YHVCG
modifications: thioether N-16
notes: as for B1
Kd [2]: 0.55 nM | SBE reporter % inhibition, peptide 0.075 nM [3]: 19.7% | SBE reporter % inhibition, peptide 0.75 nM [3]: 69.7% | SBE reporter % inhibition, peptide 7.5 nM [3]: 98.1% | SBE reporter % inhibition, peptide 75.0 nM [3]: 101%

From patent US20250034212A1, “PEPTIDE” (PEPTIDREAM INC., priority 2021, published 2025)
